Measurements as given in patent publication US20120039904A1 (Kyowa Kirin, published 2012).
Residue numbers refer to the chain shown, from its start.

Key:
[1] = molecular target: T1, human ASCT2 (system ASC amino acid transporter 2), endogenous on human tumour cell lines (human, UniProt Q15758 1-541); assay: flow cytometry on KMS-11 cells
T1 construct: Endogenous ASCT2 of cell lines KMS-11 (stated to express ASCT2 mRNA), WiDr and OPM-2; also called SLC1A5; ASCT2 on KMS-11, OPM-2, WiDr cells
T1 sequence: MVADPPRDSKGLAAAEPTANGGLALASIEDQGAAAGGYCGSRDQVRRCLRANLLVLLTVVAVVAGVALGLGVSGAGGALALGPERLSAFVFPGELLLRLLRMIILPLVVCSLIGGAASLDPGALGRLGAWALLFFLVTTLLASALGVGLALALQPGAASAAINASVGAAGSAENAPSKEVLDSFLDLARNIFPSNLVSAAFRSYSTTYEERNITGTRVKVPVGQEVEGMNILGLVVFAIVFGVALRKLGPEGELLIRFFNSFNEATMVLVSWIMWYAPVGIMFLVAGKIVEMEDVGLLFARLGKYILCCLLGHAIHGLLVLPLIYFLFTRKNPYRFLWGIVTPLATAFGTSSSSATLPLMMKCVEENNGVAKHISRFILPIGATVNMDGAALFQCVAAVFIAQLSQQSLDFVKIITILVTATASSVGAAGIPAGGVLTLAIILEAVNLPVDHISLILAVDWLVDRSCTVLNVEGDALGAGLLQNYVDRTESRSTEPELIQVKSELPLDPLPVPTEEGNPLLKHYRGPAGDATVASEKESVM

[2] = molecular target: T2, mouse EL4 type ASCT2-myc/His (mouse/human chimeric ASCT2), expressed on CHO cells (human/mouse chimera, UniProt Q15758 1-541); assay: flow cytometry on mEL4/CHO cells; '+' = presence of reactivity
T2 construct: also called mEL4/CHO; mEL4
T2 sequence: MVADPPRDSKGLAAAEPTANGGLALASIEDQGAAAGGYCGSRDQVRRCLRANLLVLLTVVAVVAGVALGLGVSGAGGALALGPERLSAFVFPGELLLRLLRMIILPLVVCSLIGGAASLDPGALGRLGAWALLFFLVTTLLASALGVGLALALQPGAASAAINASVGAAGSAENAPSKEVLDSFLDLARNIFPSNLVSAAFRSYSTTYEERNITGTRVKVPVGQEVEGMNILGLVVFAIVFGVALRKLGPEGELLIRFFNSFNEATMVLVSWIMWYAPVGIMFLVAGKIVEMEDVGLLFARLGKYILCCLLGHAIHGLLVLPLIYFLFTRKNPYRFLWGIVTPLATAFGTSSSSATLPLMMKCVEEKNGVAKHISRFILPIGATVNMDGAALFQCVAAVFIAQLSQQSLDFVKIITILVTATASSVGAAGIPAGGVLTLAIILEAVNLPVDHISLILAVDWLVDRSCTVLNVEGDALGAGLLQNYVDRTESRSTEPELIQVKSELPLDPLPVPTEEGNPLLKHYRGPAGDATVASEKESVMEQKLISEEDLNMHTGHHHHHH
Experimental: (§1) Using the mouse ASCT2/CHO and mouse/human chimeric ASCT2/CHO cells constructed in Examples 10 and 11 and FITC-labeled anti-mouse immunoglobulin G (H+L) (manufactured by Dako) or ALEXA488-labeled anti-rat immunoglobulin G […] (manufactured by Invitrogen) as the secondary antibody, the reactivity of anti-ASCT2 monoclonal antibodies KM4008, KM4012 and KM4018 was measured in the same manner as in Example 9(1).
(§2) In Table 2, the symbols “+”, “−”, and “±” represent the presence of reactivity, the absence of reactivity, and the decrease in reactivity, respectively.

[3] = molecular target: T3, human ASCT2-myc/His (fusion protein in which myc/His was added to the C-terminal of human ASCT2), expressed … (human, UniProt Q15758 1-541); assay: flow cytometry on human ASCT2/CHO cells; '+' = presence of reactivity
T3 construct: Amino acid transporter with C-terminal myc/His tag, stably expressed in CHO/DG44 cells; cell lysates of these cells were used for Western blotting and immunoprecipitation; also called ASCT2/CHO; human ASCT2-myc/His gene-introduced CHO cell
T3 sequence: T2 sequence with K367N

[4] = molecular target: T4, mouse EL2 type ASCT2-myc/His (mouse/human chimeric ASCT2), expressed on CHO cells (human/mouse chimera); assay: flow cytometry on mEL2/CHO cells; '-' represents the absence of reactivity
T4 construct: also called mEL2/CHO; mEL2
T4 chain: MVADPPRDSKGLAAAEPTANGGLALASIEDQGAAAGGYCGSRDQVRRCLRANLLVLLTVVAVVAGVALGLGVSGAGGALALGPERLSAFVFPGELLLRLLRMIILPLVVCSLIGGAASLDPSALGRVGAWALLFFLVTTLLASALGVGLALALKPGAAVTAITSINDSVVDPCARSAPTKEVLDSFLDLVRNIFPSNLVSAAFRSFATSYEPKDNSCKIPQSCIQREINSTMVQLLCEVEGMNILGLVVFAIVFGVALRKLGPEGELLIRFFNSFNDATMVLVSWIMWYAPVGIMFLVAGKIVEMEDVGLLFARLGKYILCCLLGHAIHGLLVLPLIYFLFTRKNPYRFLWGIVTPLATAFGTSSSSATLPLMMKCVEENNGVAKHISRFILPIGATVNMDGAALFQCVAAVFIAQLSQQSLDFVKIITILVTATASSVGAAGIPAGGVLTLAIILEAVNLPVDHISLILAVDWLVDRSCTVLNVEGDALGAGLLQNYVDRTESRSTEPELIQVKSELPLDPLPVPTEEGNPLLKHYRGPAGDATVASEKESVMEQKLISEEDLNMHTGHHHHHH
Experimental: as §1, §2

[5] = molecular target: T5, mouse ASCT2-myc/His, expressed on CHO cells (mouse, UniProt P51912 1-553); assay: flow cytometry on mouse ASCT2/CHO cells; '-' represents the absence of reactivity
T5 construct: also called mouse ASCT2/CHO
T5 sequence: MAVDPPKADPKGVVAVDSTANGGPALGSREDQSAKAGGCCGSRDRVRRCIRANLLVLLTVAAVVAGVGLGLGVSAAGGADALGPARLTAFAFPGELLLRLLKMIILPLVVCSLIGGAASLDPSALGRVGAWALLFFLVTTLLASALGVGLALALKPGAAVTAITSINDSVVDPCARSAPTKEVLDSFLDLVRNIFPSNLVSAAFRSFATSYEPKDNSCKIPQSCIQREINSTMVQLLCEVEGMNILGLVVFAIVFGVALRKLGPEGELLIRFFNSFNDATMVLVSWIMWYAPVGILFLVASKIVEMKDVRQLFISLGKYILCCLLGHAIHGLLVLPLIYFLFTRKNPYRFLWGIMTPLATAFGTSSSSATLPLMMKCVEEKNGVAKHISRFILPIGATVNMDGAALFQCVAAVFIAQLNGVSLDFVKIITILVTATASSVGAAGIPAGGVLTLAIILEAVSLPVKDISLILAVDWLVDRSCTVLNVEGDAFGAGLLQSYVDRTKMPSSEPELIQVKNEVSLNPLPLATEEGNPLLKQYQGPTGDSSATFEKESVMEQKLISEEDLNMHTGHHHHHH
Experimental: as §1, §2

binding result [1]: binds | binding result [2]: binds | binding result [3]: binds | binding result [4]: no binding | binding result [5]: no binding
B1: anti-ASCT2 monoclonal antibody KM4018 (antibody, rat IgG2a, V domains shown)
VH: EVQLVESGGGLVQSGRSIRLSCAASGFSFSNYYMAWVRQAPSKGLEWVASITKGGGNTYYRDSVKGRFTFSRDNAKSTLYLQMDSLRSEDTATYYCARQVTIAAVSTSYFDSWGQGVMVTVSS
VL: DIVLTQSPALAVSLGQRATISCKTNQKVDYYGNSYVYWYQQKPGQQPKLLIYLASNLASGIPARFSGRGSGTDFTLTIDPVEADDTATYYCQQSRNLPYTFGAGTKLELKR
notes: rat IgG2a, kappa
